Measured values as given in patent US20240181007A1, “COMPOSITIONS AND METHODS FOR TREATING PULMONARY HYPERTENSION” (Acceleron Pharma Inc., priority 2021, published 2024).

Legend:
[1] = target: T1, BMP9 (Homo sapiens, UniProt Q9UK05); test: A204 cell-based pGL3(CAGA)12 reporter gene assay, signaling by BMP9; settings: for Inhibitory Potency of Homodimeric ActRIIB-Fc Constructs IC50 BMP9: Table 5, A204 cells, luciferase reporter, ND: not detectable over concentration range tested
T1 sequence (Q9UK05 320-429): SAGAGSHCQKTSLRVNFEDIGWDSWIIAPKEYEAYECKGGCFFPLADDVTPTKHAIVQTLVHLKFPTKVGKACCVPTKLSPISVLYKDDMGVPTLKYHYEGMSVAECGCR
Description: (§1) To determine activity of variant ActRIIB-Fc polypeptides, an A204 cell-based assay was used to compare effects among variant ActRIIB-Fc polypeptides on signaling by activin A, activin B, GDF8, GDF11, BMP9, and BMP10, in comparison to ActRIIB-G1Fc. In brief, this assay uses a human A204 rhabdomyosarcoma cell line (ATCC®: HTB-82™) derived from muscle and the reporter vector pGL3(CAGA)12 (Dennler et al., 1998, EMBO 17: 3091-3100) as well as a Renilla reporter plasmid (pRLCMV) to control for transfection efficiency. The CAGA12 motif is present in TGF-β responsive genes (e.g., PAI-1 gene), so this vector is of general use for ligands that can signal through Smad2/3, including activin A. GDF11, and BMP9.
(§2) On day 1. A204 cells were transferred into one or more 48-well plates. On day 2, these cells were transfected with 10 μg pGL3(CAGA)12 or pGL3(CAGA)12(10 μg)+pRLCMV (1 pg) and Fugene. On day 3, ligands diluted in medium containing 0.1% BSA were preincubated with ActRIIB-Fc polypeptides for 1 hr before addition to cells. Approximately six hour later, the cells were rinsed with PBS and lysed. Cell lysates were analyzed in a luciferase assay to determine the extent of Smad activation.
(§3) This assay was used to screen variant ActRIIB-Fc polypeptides for inhibitory effects on cell signaling by activin A, activin B. GDF8, GDF11. BMP9, and BMP10. Potencies of homodimeric Fc fusion polypeptides incorporating amino acid substitutions in the human ActRIIB extracellular domain were compared with that of an Fc fusion polypeptide comprising unmodified human ActRIIB extracellular domain, ActRIIB-G1Fc. For some variants tested, it was not possible to calculate an accurate IC50, but signs of inhibition in the slope of the curves were detectable. For these variants, an estimate was included of the order of magnitude of the relative IC50, i.e. >10 nM or >100 nM instead of a definite number. Such data points are indicated by a (*) in Table 3 below. For some variants tested, there was no detectable inhibition in the slope of the curves over the concentration range tested, which is indicated by “ND” in Table 4.
as §1, with “A,” for “A, activin B, GDF8,”, “GDF11,” for “GDF11, BMP9,”, “and BMP9.” for “and BMP10, in comparison to ActRIIB-G1Fc.”, “(Dennler el” for “(Dennler et”, “activin A,” for “activin A.”
as §2, with “1, A-204” for “1. A204”, “μg)” for “pg)”
(§4) This assay was used to screen variant ActRIIB-Fc polypeptides for inhibitory effects on cell signaling by activin A, GDF11, and BMP9. Potencies of homodimeric Fc fusion polypeptides incorporating amino acid substitutions in the human ActRIIB extracellular domain were compared with that of an Fc fusion polypeptide comprising unmodified human ActRIIB extracellular domain.

[2] = target: T2, Activin A (Homo sapiens, UniProt P08476); test: A204 cell-based pGL3(CAGA)12 reporter gene assay, signaling by activin A; settings: for Inhibitory Potency of Homodimeric ActRIIB-Fc Constructs IC50 Activin A: Table 5, A204 cells, luciferase reporter
T2 sequence (P08476 311-426): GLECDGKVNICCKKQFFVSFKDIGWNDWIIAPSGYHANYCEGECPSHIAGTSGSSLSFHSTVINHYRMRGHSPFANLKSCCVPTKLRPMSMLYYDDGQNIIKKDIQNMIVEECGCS
Description: as §1, §2, §3
as §1, with “A,” for “A, activin B, GDF8,”, “GDF11,” for “GDF11, BMP9,”, “and BMP9.” for “and BMP10, in comparison to ActRIIB-G1Fc.”, “(Dennler el” for “(Dennler et”, “activin A,” for “activin A.”
as §2, with “1, A-204” for “1. A204”, “μg)” for “pg)”
as §4

[3] = target: T3, GDF11 (Homo sapiens, UniProt O95390); test: A204 cell-based pGL3(CAGA)12 reporter gene assay, signaling by GDF11; settings: for Inhibitory Potency of Homodimeric ActRIIB-Fc Constructs IC50 GDF11: Table 5, A204 cells, luciferase reporter, ND: not detectable over concentration range tested
T3 sequence (O95390 299-407): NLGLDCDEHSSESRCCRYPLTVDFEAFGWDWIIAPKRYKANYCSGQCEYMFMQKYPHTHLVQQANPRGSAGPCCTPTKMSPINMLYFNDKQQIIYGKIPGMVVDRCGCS
Description: as §1, §2, §3
as §1, with “A,” for “A, activin B, GDF8,”, “GDF11,” for “GDF11, BMP9,”, “and BMP9.” for “and BMP10, in comparison to ActRIIB-G1Fc.”, “(Dennler el” for “(Dennler et”, “activin A,” for “activin A.”
as §2, with “1, A-204” for “1. A204”, “μg)” for “pg)”
as §4

[4] = target: T1, BMP9; test: Biacore-based binding assay (surface plasmon resonance), BMP9; settings: SPR 37° C., FIG. 9, compared to Fc fusion with unmodified ActRIIB extracellular domain
Experimental: (§5) To determine ligand binding profiles of variant ActRIIB-Fc homodimers, a Biacore™-based binding assay was used to compare ligand binding kinetics of certain variant ActRIIB-Fc polypeptides. ActRIIB-Fc polypeptides to be tested were independently captured onto the system using an anti-Fc antibody. Ligands were then injected and allowed to flow over the captured receptor protein. ActRIIB-G1Fc was used as the control polypeptide.
as §5, with “protein.” for “protein. ActRIIB-G1Fc was used as the control polypeptide.”
A Biacore™-based binding assay was used to compare the ligand binding kinetics of an ActRIIB-Fc:ActRIIB(L79E)-Fc heterodimer with those of unmodified ActRIIB-Fc homodimer. Fusion proteins were captured onto the system using an anti-Fc antibody. Ligands were then injected and allowed to flow over the captured receptor protein at 37° C. Results are summarized in the table below, in which ligand off-rates (kd) most indicative of effective ligand traps are denoted in bold.

[5] = target: T4, GDF11 (UniProt O95390 299-407); test: cell-based or functional assay
T4 construct: also called Growth and differentiation factor-11; BMP11
T4 sequence (looked up): T3 sequence (O95390 299-407)

Row | Substance | Inhibitory Potency of Homodimeric ActRIIB-Fc Constructs IC50 BMP9 [1] | Inhibitory Potency of Homodimeric ActRIIB-Fc Constructs IC50 Activin A [2] | Inhibitory Potency of Homodimeric ActRIIB-Fc Constructs IC50 GDF11 [3] | other results
1 | A24N: homodimeric ActRIIB-Fc fusion, A24N substitution in human ActRIIB extracellular domain | 0.409 µg/mL | 0.128 µg/mL | 0.099 µg/mL | –
2 | E50K: homodimeric ActRIIB-Fc fusion, E50K substitution in human ActRIIB extracellular domain | 0.721 µg/mL | 0.132 µg/mL | 0.18 µg/mL | –
3 | E50P: homodimeric ActRIIB-Fc fusion, E50P substitution in human ActRIIB extracellular domain | ~3 µg/mL | 0.756 µg/mL | 0.638 µg/mL | –
4 | E52A: homodimeric ActRIIB-Fc fusion, E52A substitution in human ActRIIB extracellular domain | 0.359 µg/mL | 0.198 µg/mL | 0.071 µg/mL | –
5 | E52K: homodimeric ActRIIB-Fc fusion, E52K substitution in human ActRIIB extracellular domain | ~10 µg/mL | 0.762 µg/mL | 0.296 µg/mL | –
6 | F82I: homodimeric ActRIIB-G1Fc fusion with F82I substitution; mature SEQ ID NO: 39 | – | – | – | inhibition of BMP9 compared to fusion polypeptide with unmodified ActRIIB extracellular domain (in words) ([1]; A204 reporter gene assay): less potent inhibition of BMP9; selectivity of antagonism (activin A and GDF11 over BMP9) compared to unmodified ActRIIB-Fc ([1]; A204 reporter gene assay): more selective antagonists of activin A and GDF11; inhibition of activin A compared to fusion polypeptide with unmodified ActRIIB extracellular domain (in words) ([2]; A204 reporter gene assay): essentially undiminished inhibition of activin A and GDF11; reduction in affinity for BMP9 compared with reduction in affinity for GDF11 or activin A [4]: reduce ActRIIB binding affinity for BMP9 more than they reduce ActRIIB affinity for activin A or GDF11; reduction in affinity for BMP9 compared with reduction in affinity for GDF11 or activin A ([4]; listed as ActRIIB(F82I)-Fc): greater reduction in their affinity for BMP9 than for GDF11; inhibition of GDF11 compared to fusion polypeptide with unmodified ActRIIB extracellular domain (in words) ([3]; A204 reporter gene assay): essentially undiminished inhibition of activin A and GDF11
7 | F82W (homodimeric ActRIIB-Fc construct) (Fc fusion) | – | – | – | IC50 (ng/ml), A204 CAGA12 luciferase reporter assay [5]: 276 ng/mL
8 | F82W/N83A: homodimeric ActRIIB-Fc fusion, F82W and N83A substitutions in human ActRIIB extracellular domain | ~40 µg/mL | – | 0.389 µg/mL | –
9 | F82W: homodimeric ActRIIB-Fc fusion, F82W substitution in human ActRIIB extracellular domain | – | – | 0.276 µg/mL | –
10 | K55D: homodimeric ActRIIB-Fc fusion, K55D substitution in human ActRIIB extracellular domain | 5.5 µg/mL | 0.396 µg/mL | 0.365 µg/mL | –
11 | K55R: homodimeric ActRIIB-Fc fusion, K55R substitution in human ActRIIB extracellular domain | 0.777 µg/mL | 0.206 µg/mL | 0.318 µg/mL | –
12 | K74R: homodimeric ActRIIB-Fc fusion, K74R substitution in human ActRIIB extracellular domain | 0.165 µg/mL | – | 0.045 µg/mL | –
13 | L79R (homodimeric ActRIIB-Fc construct) (Fc fusion) | – | – | – | IC50 (ng/ml), A204 CAGA12 luciferase reporter assay [5]: 234 ng/mL
14 | L79R: homodimeric ActRIIB-Fc fusion, L79R substitution in human ActRIIB extracellular domain | – | – | 0.234 µg/mL | –
15 | R40A: homodimeric ActRIIB-Fc fusion, R40A substitution in human ActRIIB extracellular domain | 1.21 µg/mL | – | 0.591 µg/mL | –
16 | Y60K (homodimeric ActRIIB-Fc construct) (Fc fusion) | – | – | – | IC50 (ng/ml), A204 CAGA12 luciferase reporter assay [5]: 414 ng/mL
17 | Y60K: homodimeric ActRIIB-Fc fusion, Y60K substitution in human ActRIIB extracellular domain | – | – | 0.414 µg/mL | –
18 | Y60P (homodimeric ActRIIB-Fc construct) (Fc fusion) | – | – | – | IC50 (ng/ml), A204 CAGA12 luciferase reporter assay [5]: 544 ng/mL
19 | Y60P: homodimeric ActRIIB-Fc fusion, Y60P substitution in human ActRIIB extracellular domain | – | – | 0.544 µg/mL | –
